Laboratory results as given in US20160015827A1.
Values joined by “and” are separate entries in the source; they are usually repeats but may differ in a detail not shown here. Equal entries are not always repeated.

Assays:
[1] = biological target: human folate receptor alpha (FRA) (human) (UniProt P15328); assay: flow cytometry on SK-OV-3 cells, secondary antibody alone (background)
[2] = biological target: human folate receptor alpha (FRA) (human) (UniProt P15328); assay: flow cytometry on OVCAR-3B cells, secondary antibody alone (background)
[3] = biological target: human folate receptor alpha (FRA) (human) (UniProt P15328); assay: flow cytometry on NCI-H292 cells, secondary antibody alone (background)
[4] = biological target: human folate receptor alpha (FRA) (human) (UniProt P15328); assay: flow cytometry on NCI-H2110 cells, secondary antibody alone (background)
[5] = biological target: human folate receptor alpha (FRA) (human) (UniProt P15328); assay: flow cytometry on OVCAR-3 cells, 10 µg/mL
[6] = biological target: human folate receptor alpha (FRA) (human) (UniProt P15328); assay: flow cytometry on SK-OV-3 cells, 10 µg/mL
[7] = biological target: human folate receptor alpha (FRA) (human) (UniProt P15328); assay: flow cytometry on NCI-H292 cells, 10 µg/mL
[8] = biological target: human folate receptor alpha (FRA) (human) (UniProt P15328); assay: flow cytometry on NCI-H2110 cells, 10 µg/mL

Sequence of human folate receptor alpha (FRA) (human) (P15328 25-234 limits assumed): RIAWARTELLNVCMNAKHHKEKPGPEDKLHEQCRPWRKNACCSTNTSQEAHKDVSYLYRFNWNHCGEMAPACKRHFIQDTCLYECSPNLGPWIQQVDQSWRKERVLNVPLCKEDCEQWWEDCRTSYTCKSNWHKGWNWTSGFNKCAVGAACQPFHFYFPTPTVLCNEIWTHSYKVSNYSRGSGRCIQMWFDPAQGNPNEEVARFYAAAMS

MFI [1] | MFI [2] | MFI [3] | MFI [4] | MFI [5] | MFI [6] | MFI [7] | MFI [8] | Substance
6 MFI and 5 MFI | 5 MFI | 6 MFI | 5 MFI | – | – | – | – | goat F(ab')2-anti-human IgG (H+L)-RPE or goat anti-human IgG-RPE (antibody)
– | – | – | – | 7 MFI | 6 MFI | 6 MFI | 5 MFI | isotype control antibody human IgG
